Measured values from patent US20210324351, “STRUCTURE OF THE HUMAN CGAS-DNA COMPLEX AND USES THEREOF” (Presodent and Fellows of Harvard College, published 2021).

Experiments:
[1] = target: hcGAS catalytic domain WT (Homo sapiens, UniProt Q8N884 SEQ:1-366); assay: EMSA; gradient dialysis to 50 mM KCl, 4 C; preferentially higher-order oligomers; details: tags: untagged (6xHis-SUMO2 removed with SENP2)
Protocol: (§1) cGAS-DNA complexes were stably assembled using a method adapted from a nucleosome assembly gradient dialysis protocol (Lee and Narlikar (2001) Current protocols in molecular biology Chapter 21, Unit 21.26), and complex formation was measured by electrophoretic mobility shift analysis. Briefly, a concentration gradient of recombinant protein (0.2, 0.4, 2, 10 μM) was incubated with 45 bp dsDNA (2 μM) in a high-salt buffer containing 20 mM HEPES-NaOH pH 7.8, […], 1 mM DTT at 4° C. for 20 min. The reconstitution mixture was then transferred into 8-10 kDa molecular weight cut-off dialysis tubing (Spectrum Labs), and placed into a beaker of the high-salt buffer. The KCl concentration was reduced gradually by slowly replacing high-salt buffer with low-salt buffer (20 mM HEPES-KOH pH 7.5, 50 mM KCl, 1 mM DTT) with a peristaltic pump (Bio-Rad) at a rate of […] for 48 hr at 4° C. After gradient dialysis, reactions were supplemented to 5% glycerol, and subsequently separated on a 2% agarose gel in 0.5×TBE buffer at 4° C. […] Alternatively, where indicated in FIGS. 8A and 8C, cGAS-DNA complexes were assembled by incubating directly in reaction buffer containing 20 mM HEPES-NaOH pH 7.8, […], 1 mM DTT at 4° C. for 20 min and analyzed by electrophoretic mobility shift analysis as indicated above. […]

[2] = target: T1, hcGAS K187N/L195R (hcGAS*) (Homo sapiens, UniProt Q8N884 SEQ:1-366); assay: EMSA; gradient dialysis to 50 mM KCl, 4 C; stable low-MW complex restored, oligomers unaffected; details: tags: untagged (6xHis-SUMO2 removed with SENP2); chain copies: 2 (2:2 complex with DNA, stated)
T1 chain: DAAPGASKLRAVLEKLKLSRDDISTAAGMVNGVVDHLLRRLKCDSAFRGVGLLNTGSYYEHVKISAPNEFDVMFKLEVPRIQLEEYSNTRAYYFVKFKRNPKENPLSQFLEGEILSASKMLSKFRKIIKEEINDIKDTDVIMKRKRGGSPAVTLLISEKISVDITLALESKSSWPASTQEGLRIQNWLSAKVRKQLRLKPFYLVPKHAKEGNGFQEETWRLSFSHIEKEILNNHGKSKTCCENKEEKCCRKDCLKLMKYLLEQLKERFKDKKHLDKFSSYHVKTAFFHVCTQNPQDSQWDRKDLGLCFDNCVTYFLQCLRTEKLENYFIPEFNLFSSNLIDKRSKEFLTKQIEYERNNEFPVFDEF
Protocol: as §1

[3] = target: mcGAS humanized K187/L195 (UniProt Q8C6L5 SEQ:1-361, N172K,R180L); assay: EMSA; gradient dialysis to 50 mM KCl, 4 C; low-MW complex ablated, higher-order oligomers retained; details: tags: untagged (6xHis-SUMO2 removed with SENP2)
Protocol: as §1

[4] = target: mcGAS catalytic domain WT (UniProt Q8C6L5 SEQ:1-361); assay: EMSA; gradient dialysis to 50 mM KCl, 4 C; minimal complex plus higher-order oligomers; details: tags: untagged (6xHis-SUMO2 removed with SENP2)
Protocol: as §1

Measured: binding result

mcGAS humanized K187/L195, sequence (Q8C6L5 147-507 N172K/R180L): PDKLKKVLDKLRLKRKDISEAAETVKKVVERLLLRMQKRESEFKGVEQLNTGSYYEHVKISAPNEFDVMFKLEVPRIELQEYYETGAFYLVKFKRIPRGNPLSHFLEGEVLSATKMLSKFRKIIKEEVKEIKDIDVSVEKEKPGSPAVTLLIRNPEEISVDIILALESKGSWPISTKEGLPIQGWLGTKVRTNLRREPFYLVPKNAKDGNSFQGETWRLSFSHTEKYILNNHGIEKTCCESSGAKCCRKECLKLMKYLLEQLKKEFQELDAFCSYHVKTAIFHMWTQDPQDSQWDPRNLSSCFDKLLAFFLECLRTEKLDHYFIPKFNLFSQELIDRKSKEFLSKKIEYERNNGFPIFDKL
mcGAS catalytic domain WT, sequence (Q8C6L5 147-507): as the sequence (Q8C6L5 147-507 N172K/R180L) above, with K26N, L34R counted along it

B1: 45 bp interferon stimulatory DNA (dsDNA)
DNA 1: TACAGATCTACTAGTGATCTATGACTGATCTGTACATGATCTACA
DNA 2: TGTAGATCATGTACAGATCAGTCATAGATCACTAGTAGATCTGTA
binds: all assays above
